In patent CN104231083A (GMAX BIOPHARM CO LTD, dated 2014):

B1: 单克隆抗体A-1 (antibody, V domains shown)
VH: QIQLVQSGPELKKPGETVKISCKASGYTFTNYGMNWVKQAPGKGLKWMGWINTNTGEPTYVEEFKGRFAFSLETSDSTAYLQINNLKNEDTATYFCANLYWGQGTTLTVSS
VL: DVLMTQTPLSLPVSLGDQASISCRSSQNILHSNGNTYLEWYLQKPGQSPKLLIFKVSNRFSGVPDRFSGSGSGTDFTLKISRVEAEDLGVYYCFQGSHVPWTFGGGTKLEIK
notes: Mouse monoclonal antibody; Tested as hybridoma supernatant (FACS) and as purified antibody / antibody supernatant (cAMP assay); also called L1H1
B2: 单克隆抗体A-3 (antibody, V domains shown)
VH: EVKLVESGGGLVQPGGSRKLSCAASGFPFSDYGLAWFRQAPGKGPEWVAFISNLAYSTYYADTVTGRFTISRENAKNTLFLEMSSLRSEDTAMYYCARDRGLFDYWGQGTTLTVSS
VL: DVVMTQIPLSLPVSLGDQASISCRSSQSLVHSNGNTYLHWYLQKPGQSPKLLIYKVSNRFSGVPDRFSGSGSGTDFTLKISRVEAEDLGVYFCSQSTHVPPYTFGGGTKLEIKR
notes: Mouse monoclonal antibody; Tested as hybridoma supernatant (FACS) and as purified antibody / antibody supernatant (cAMP assay); also called L3H3
B3: 单克隆抗体A-2 (antibody, V domains shown)
VH: QIQLVQSGPELKKPGETVKISCKASGYTFTNYGMNWVKQAPGKGLKWMGWINTYNGEPTYADDFKGRCAFFLETSASTAYLQLNNLKNEDTATYFCTREYYISNYGAMDYWGQGTSVTVSS
VL: DIQMTQTTSSLSASLGDRVTISCRASQDISNYLNWYQQKPDGTVKLLIYYTSRLHSGVPSRFSGSGSGADYSLTIANLDQEDIATYFCQQGILFPLTFGAGTKLELK
notes: Mouse monoclonal antibody; Tested as hybridoma supernatant (FACS) and as purified antibody / antibody supernatant (cAMP assay); also called L2H2

Each binder was assayed against T1, 人胰高血糖素受体 (human glucagon receptor) (human, UniProt P47871 26-477) (assay: flow cytometry, hybridoma supernatant on CHO-DHFR-hGCGR cells).
T1 construct: Overexpressed on stably transfected CHO-DHFR- cells; also called hGCGR; GCGR
T1 sequence (P47871 26-477 limits assumed): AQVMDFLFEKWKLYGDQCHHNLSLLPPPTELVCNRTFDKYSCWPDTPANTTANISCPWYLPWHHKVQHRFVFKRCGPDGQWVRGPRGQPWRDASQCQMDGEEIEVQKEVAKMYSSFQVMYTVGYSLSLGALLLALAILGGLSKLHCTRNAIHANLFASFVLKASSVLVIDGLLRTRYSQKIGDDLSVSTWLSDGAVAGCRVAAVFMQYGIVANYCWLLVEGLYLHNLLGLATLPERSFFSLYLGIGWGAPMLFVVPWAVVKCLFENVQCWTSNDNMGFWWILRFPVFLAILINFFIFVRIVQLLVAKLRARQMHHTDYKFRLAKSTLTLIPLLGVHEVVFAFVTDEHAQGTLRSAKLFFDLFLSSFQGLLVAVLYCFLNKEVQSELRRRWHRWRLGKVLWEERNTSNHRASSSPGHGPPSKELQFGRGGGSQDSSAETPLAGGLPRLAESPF

Binder | binding result
B1 | binds
B2 | binds
B3 | binds
